We go through three molecules from PMC11638070 (Nature Structural & Molecular Biology, 2024).

Data set [1] concerns the molecule itself. In words: SEC; analytical SEC of each protein alone (mtHsp60 samples 17 µM monomer); Superdex 200 Increase 3.2/300, room temperature, 20 mM HEPES pH 7.5, 100 mM KCl, 10 mM MgCl2. For orientation: Size exclusion chromatography separates by hydrodynamic size, large species first.
In data set [2] the target is T1, mitochondrial heat shock protein 60 V72I (mtHsp60^V72I) (human, UniProt P10809 53-573, V72I). Kind of data set: cryo-EM structure; mtHsp60^V72I 0.2-0.6 mg/ml in ATPase buffer without detergent, 1 mM ATP. The following applies: both partners purified.
For data set [3], the target named is T1, mitochondrial heat shock protein 60 …. Kind of data set: SEC-MALS; mtHsp60 samples 17 µM monomer, without ATP; Shodex Protein KW-804, room temperature, 20 mM HEPES pH 7.5, 100 mM KCl, 10 mM MgCl2; heptamer to monomers. The following applies: both partners purified.
In data set [4] the target is mtHsp60 Y201A (human, UniProt P10809 53-573, Y201A). Kind of data set: SEC; analytical SEC of each protein alone (mtHsp60 samples 17 µM monomer); Superdex 200 Increase 3.2/300, room temperature, 20 mM HEPES pH 7.5, 100 mM KCl, 10 mM MgCl2. The conditions noted are these: both partners purified.

B1: mitochondrial malate dehydrogenase labelled with fluorescein isothiocyanate (FITC-mtMDH) (enzyme, human, UniProt P40926 25-338, looked up)
chain: AKVAVLGASGGIGQPLSLLLKNSPLVSRLTLYDIAHTPGVAADLSHIETKAAVKGYLGPEQLPDCLKGCDVVVIPAGVPRKPGMTRDDLFNTNATIVATLTAACAQHCPEAMICVIANPVNSTIPITAEVFKKHGVYNPNKIFGVTTLDIVRANTFVAELKGLDPARVNVPVIGGHAGKTIIPLISQCTPKVDFPQDQLTALTGRIQEAGTEVVKAKAGAGSATLSMAYAGARFVFSLVDAMNGKEGVVECSFVKSQETECTYFSTPLLLGKKGIEKNLGIGKVSSFEEKMISDAIPELKASIKKGEDFVKTLK
modifications: FITC (fluorescein isothiocyanate) label, sites not stated
notes: mitochondrial malate dehydrogenase (mtMDH), human; bacterial expression vector Addgene plasmid no; 38792; Used folded (elutes as a dimer) or chemically denatured (6 M guanidine HCl, 10 mM DTT, 1 h); the two states are told apart by the assays; also called FITC-mtMDH^denat (guanidine-denatured form); source: E. coli Rosetta 2(DE3)pLysS, purified (HisTrap, SEC), labelled with FITC
What is called stoichiometry N is the number of molecules, sites or subunits per partner or assembly. As to B1, in data set [1], the “stoichiometry N” value came to 2.

B2: mitochondrial heat shock protein 60 V72I (mtHsp60^V72I) (natural protein)
chain: AKDVKFGADARALMLQGVDLLADAVAVTMGPKGRTVIIEQSWGSPKVTKDGVTVAKSIDLKDKYKNIGAKLIQDVANNTNEEAGDGTTTATVLARSIAKEGFEKISKGANPVEIRRGVMLAVDAVIAELKKQSKPVTTPEEIAQVATISANGDKEIGNIISDAMKKVGRKGVITVKDGKTLNDELEIIEGMKFDRGYISPYFINTSKGQKCEFQDAYVLLSEKKISSIQSIVPALEIANAHRKPLVIIAEDVDGEALSTLVLNRLKVGLQVVAVKAPGFGDNRKNQLKDMAIATGGAVFGEEGLTLNLEDVQPHDLGKVGEVIVTKDDAMLLKGKGDKAQIEKRIQEIIEQLDVTTSEYEKEKLNERLAKLSDGVAVLKVGGTSDVEVNEKKDRVTDALNATRAAVEEGIVLGGGCALLRCIPALDSLTPANEDQKIGIEIIKRTLKIPAMTIAKNAGVEGSLIVEKIMQSSSEVGYDAMAGDFVNMVEKGIIDPTKVVRTALLDAAGVASLLTTAEVVVTEIPKEEKDPGMGAMGGMGGGMGGGMF
modifications: heptamer in apo state; ATP/Mg2+/K+ gives double-ring tetradecamer; SNA tag scar left out / heptamer in apo state; ATP/Mg2+/K+ gives double-ring tetradecamer; SNA tag scar left out
With B2, the figures for the “stoichiometry N” value in data set [2] and in data set [3] were 14 and 7, respectively.

B3: mtHsp60 Y201A (natural protein)
chain: AKDVKFGADARALMLQGVDLLADAVAVTMGPKGRTVIIEQSWGSPKVTKDGVTVAKSIDLKDKYKNIGAKLVQDVANNTNEEAGDGTTTATVLARSIAKEGFEKISKGANPVEIRRGVMLAVDAVIAELKKQSKPVTTPEEIAQVATISANGDKEIGNIISDAMKKVGRKGVITVKDGKTLNDELEIIEGMKFDRGYISPAFINTSKGQKCEFQDAYVLLSEKKISSIQSIVPALEIANAHRKPLVIIAEDVDGEALSTLVLNRLKVGLQVVAVKAPGFGDNRKNQLKDMAIATGGAVFGEEGLTLNLEDVQPHDLGKVGEVIVTKDDAMLLKGKGDKAQIEKRIQEIIEQLDVTTSEYEKEKLNERLAKLSDGVAVLKVGGTSDVEVNEKKDRVTDALNATRAAVEEGIVLGGGCALLRCIPALDSLTPANEDQKIGIEIIKRTLKIPAMTIAKNAGVEGSLIVEKIMQSSSEVGYDAMAGDFVNMVEKGIIDPTKVVRTALLDAAGVASLLTTAEVVVTEIPKEEKDPGMGAMGGMGGGMGGGMF
modifications: at least partly heptameric by SEC; mature numbering + 26 = precursor; SNA tag scar left out / at least partly heptameric by SEC; mature numbering + 26 = precursor; SNA tag scar left out
As for B3, the “stoichiometry N” value in data set [4] came out at 7.
